Assay results as given in patent publication US20240294650A1 (Alector, published 2024).

T1: Full Axl (ECD domain of human Axl) (human, UniProt P30530 26-451)
T1 construct: also called human Axl ECD
T1 sequence: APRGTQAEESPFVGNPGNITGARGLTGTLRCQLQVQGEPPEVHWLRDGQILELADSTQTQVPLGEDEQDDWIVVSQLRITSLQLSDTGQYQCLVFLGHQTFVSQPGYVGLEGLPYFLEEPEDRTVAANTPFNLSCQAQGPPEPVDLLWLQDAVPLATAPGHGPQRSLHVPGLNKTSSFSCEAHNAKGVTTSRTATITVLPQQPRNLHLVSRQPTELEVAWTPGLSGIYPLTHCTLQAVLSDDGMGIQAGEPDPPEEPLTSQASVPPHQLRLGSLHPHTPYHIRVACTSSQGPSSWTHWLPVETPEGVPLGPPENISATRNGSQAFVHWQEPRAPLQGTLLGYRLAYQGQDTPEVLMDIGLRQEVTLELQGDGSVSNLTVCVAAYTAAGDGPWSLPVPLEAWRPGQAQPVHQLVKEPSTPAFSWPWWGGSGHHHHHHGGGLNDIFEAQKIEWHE

T2: recombinant human MerTK extracellular domain (human, UniProt Q12866 21-505)
T2 construct: also called human MerTK ECD; not shown: polyHis or TEVS/Thrombin/murine IgG2a-Fc tag
T2 sequence: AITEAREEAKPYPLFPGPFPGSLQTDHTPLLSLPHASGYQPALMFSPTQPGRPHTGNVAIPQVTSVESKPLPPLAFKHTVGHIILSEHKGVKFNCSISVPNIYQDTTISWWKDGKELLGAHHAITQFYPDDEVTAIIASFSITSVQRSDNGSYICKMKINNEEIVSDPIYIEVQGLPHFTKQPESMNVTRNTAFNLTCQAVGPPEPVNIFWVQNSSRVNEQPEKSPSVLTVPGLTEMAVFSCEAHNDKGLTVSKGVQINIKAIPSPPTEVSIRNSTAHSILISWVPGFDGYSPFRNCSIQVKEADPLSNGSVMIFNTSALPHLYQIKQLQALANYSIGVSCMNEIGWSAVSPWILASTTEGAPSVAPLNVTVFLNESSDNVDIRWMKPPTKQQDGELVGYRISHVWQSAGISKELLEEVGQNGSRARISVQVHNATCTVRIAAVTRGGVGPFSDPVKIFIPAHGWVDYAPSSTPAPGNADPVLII


What was measured:
[1] = biological target: T1, Full Axl (ECD domain of human Axl); assay: SPR (data not shown)
Protocol: Binding of anti-MerTK antibodies of the present disclosure to these domain-swapped chimera or deletion mutants was tested by Surface Plasmon Resonance (SPR) using Carterra LSA. Purified anti-MerTK antibodies were immobilized in duplicate on a HC30M chip (Carterra) by amine coupling, following the manufacturer's instructions (described previously).
Supernatants containing the constructs were diluted 1:1 with running buffer containing 0.5 mg/mL BSA (HBS-TE, Carterra; BSA, Sigma) and injected over the immobilized antibodies. The surface was regenerated with 10 mM Glycine pH2.0 after each construct injection. Sensorgrams were analyzed using Carterra Epitope software to identify patterns of construct binding. Loss of binding to MerTK constructs with domains deleted or swapped in from Axl and/or gain of binding to Axl constructs with MerTK domains swapped in were evaluated. Data from these studies were used to construct a domain binding map for anti-MerTK antibodies and their binding to various domains of human MerTK.

[2] = biological target: T2, recombinant human MerTK extracellular …; assay: SPR Carterra LSA, Ab immobilised
Protocol: Binding kinetics of anti-MerTK IgG1 antibodies of the present disclosure to human, cyno, and murine MerTK were evaluated using a Carterra LSA instrument (Carterra, Salt Lake City, UT). […] A HC200M sensor chip (Carterra) was activated using the single channel flow cell with a 7-minute injection of a 1:1:1 mixture of 100 mM MES pH 5.5, 100 mM sulfo-NHS, 400 mM EDC (all reconstituted in MES pH 5.5; 100 μl of each mixed in vial immediately before running assay). After switching to the multi-channel array flow cell, the antibodies were injected over the activated chip in three 96-spot arrays for 10 minutes each. The remaining unconjugated active groups on the chip were then blocked by injecting 1M Ethanolamine pH 8.5 (Carterra) for 7 minutes using the single channel flow cell. The resulting sensor chip contained three spots for each antibody, at three different densities. Two independent experiments were performed as follows, resulting in an N of between one and six determinations for each antibody. Spots that yielded less than 25 RU of analyte binding were excluded from further analysis.
After priming with running buffer (HBS-TE, Carterra) with 0.5 mg/ml BSA (Sigma), the immobilized anti-MerTK antibodies were tested for their ability to bind to several forms of recombinant MerTK extracellular domain, including human, cynomolgus, and mouse orthologs as described above. Estimates of affinity were generated by injecting each analyte over the entire antibody array using the single channel flow cell. MerTK analytes were diluted with running buffer, in a series of six, three-fold serial dilutions starting from 1 μM for human and cynomolgus MerTK, and 600 nM for mouse MerTK. Analytes were injected for 5 minutes, and dissociation was followed for 10 minutes. After each analyte injection, antibodies were regenerated with either Protein A/G Elution Buffer (Thermo) with 1M NaCl (Teknova), or with 10 mM Glycine pH 2.5. Three buffer blanks were run between each series (one species per series). Data were processed and analyzed using NextGenKIT high-throughput kinetics analysis software (Carterra).

| binding result [1] | Kd [2] [nM] | Binder |
| --- | --- | --- |
| no binding | – | MTK-214 (antibody, human IgG1, V domains shown) VH: QVQLQQPGAELVKPGASVKVSCKASGYTFTNYWMHWMKQRPGQGLEWIGRIHPFDSDTNYNEKFTDKATLTVDKSSSTAYMQLSSLTSEDSAVYYCAIGTLIYWGQGTTLTASS VL: DILLTQSPATLSVTPGETVSLSCRASQSIYKKLHWFQQRSHRSPRLLIKFASDSISGIPSRFTGSGSGTDYTLSINSVKPEDEAIYYCLQGYSTPLTFGAGTKLELK |
| no binding | 42 | MTK-228 (antibody, human IgG1, V domains shown) VH: QDQLQQSGPELVKPGASVKISCKASGYSFTSYYIHWVKQRPGQGLEWVGWIFPGNGNTKYNERFKGKATLTADTSSSTAYMQLSSLTSEDSAVYYCARLGLIYALDYWGQGTSVTVSS VL: DAVMTQTPLSLPVSLGDQASISCRSSQSLENSNGNTYLHWYLQKPGQSPQLLIYRVSNRFSGVLDRFSGSGSGTDFTLKISRVEAEDLGVYFCLQVTHVPFTFGSGTKLEIK |
| no binding | 39 | MTK-226 (antibody, human IgG1, V domains shown) VH: QVQLQQSGPELVKPGASVKISCKASGYSFTSYYIHWVKQRPGQGLEWIGWIFPGNGNTKYNENFRGKATLTADTSSSTAYMQLSSLTSEDSAVYYCARLGLIYALDYWGQGTSVTVSS VL: DAVMTQTPLSLPVSLGDQASISCRSSQSLESSNGNTYLHWYLQKPGQSPQLLIYRVSNRFSGVLDRFSGSGSGTDFTLQISRVEAEDLGVYFCLQVTHVPFTFGSGTKLEIK |
| no binding | 64 | MTK-218 (antibody, human IgG1, V domains shown) VH: QVQLQQSGPELVKPGTSVKISCKASGYSFTSYYIHWVKQRPGQGLDWIGWIFPGNRNTQYNEKFKGKATLTADTSSSTAYMQLSSLTSEDSAVYYCARLGLIYALDYWGQGTSVTVSS VL: DAVMTQTPLSLPVSLGDQASISCRSSQSLENSNGHTYLHWYLQKPGQSPQLLIYRVSNRFSGVQDRFSGSGSGTDFTLKISRVEAEDLGVYFCLQVTHVPFTFGSGTKLEIK |
| – | 370 | MTK-215 (antibody, human IgG1, V domains shown) VH: EVQLVESGGGLVKPGGSLKLSCAASGFIFSDYGMHWVRQAPEKGLEWVAYISSGSSTIYYGDTVKGRFTISRDNAKNTLFLQMTSLRSEDTAMYYCAKGGRYGAMDYWGHGTSVTVSS VL: DIVLTQSPATLSVTPGDSVSLSCRASQSISNNLHWYQQKSHESPRLLIKNPSQSISGIPSRFGARGSGTDFTLIINSVETEDLGVYFCQQSNSWPFTFGSGTKLEIK |
| – | 41 | MTK-216 (antibody, human IgG1, V domains shown) VH: EVQLVESGGGLVKPGGSLKLSCAASGFTFSDYGMHWVRQAPEKGLEWVAFISSGSTTIYYADTVKGRFTISRDNAKNTLILQMTSLRSEDTAIYYCTRGGFHLDYWGQGTTLTVSS VL: SIMMTQSPSSLAVSAGEKVTMGCKSSQSVLYSANQQNYLAWYQQKPGQSLKLLIYWASTRESGVPDRFTGSGSGTDFTLTISSVQAEDLAVYYCHQYFSSWTFGGGTKLEIK |
| no binding | 99 | MTK-227 (antibody, human IgG1, V domains shown) VH: EVKLVESGGGLVQPGGSLSLSCAASGFTFTDNYMTWVRQPPGKALEWLGFSRNKANGYTTEYSASVKGRFTISRDSSQSILYLQMNALRAEDSGTYYCARFPPHYYAGGYFDVWGTGTTVTVSS VL: DIQMTQSPASLSASVGETVTITCRASENIYSYLAWYQQKQGKSPQLLVYNAKTLAEGVPSRFSGSGSGTQFSLKINSLQPADFGSYYCQHYYRTPPTFGGGTKLEIK |
| – | 52 | MTK-207 (antibody, human IgG1, V domains shown) VH: QVQLKESGPGLVAPSQSLSITCTVSGISLTSYGVSWVRQPPGKGLEWLGIIWGDGSTNYHSALISRLSISKDNSKSQVFLKLNSLQTDDTATYYCAKGRYGNYEDWYFDVWGTGTTVTVSS VL: DIQMTQSPASLSASVGETVTITCRASGNIHNYLAWYQQKQGKSPQLLVYNAKTLAAGVPSRFSGSGSGTQYSLKINSLQPEDFGSYYCQHFWSIPLTFGAGTKLELK |
| no binding | – | MTK-224 (antibody, human IgG1, V domains shown) VH: QVQLQQPGAELVKPGASVKVSCKASGYTFTSYWMHWVKQRPGQGLEWIGRIHPFDSDTNYNQKFKGKATLTVDKSSSTAYMQLSSLTSEDSAVYYCSIAGFAYWGQGTLVTVSA VL: DIVMTQSPATLSVTPGDRVSLSCRASQIISDYLNWYQQKSHESPRLLIKYASQSISGIPSRFSGSGSGSDFTLSINSVEPEDVGVYYCQNGHSFPLTFGAGTKLELK |
| no binding | – | MTK-209 (antibody, human IgG1, V domains shown) VH: QVQLQQPGAELVKPGASVKVSCKASGYTFTNYWIHWVKQRPGQGLEWIGRIHPFDSEPNYNQKFKGKATLTVDKSSSTAYMHLTSLTSEDSAVYYCALASFAYWGQGTLVTVSA VL: ETTVTQSPASLSMAMGEKATIRCITSTDIDDKMNWYQQKPGKPPKLLISAGNTLRPGVPSRFSSSGYGTDFVLTVENMLSEDVADYYCLQGGALPLTFGSGTKLEIK |
| no binding | – | MTK-203 (antibody, human IgG1, V domains shown) VH: QVQLQQPGAELVKPGASVKVSCKASGYTFTNYWMHWVKQRPGQGLEWIGRIHPFDTETNDNQKFKGKATLTVDKSSSTAYMQLSSLTSEDSAVYYCVIPANGGFAYWGQGTLVTVSA VL: ETTVTQSPASLSVATGEKVTIRCITSTDIGDDMNWYQQKPGEPPKVLISEGNSLRPGVPSRFSSSGYGTDFVFTIENTLSEDVADYFCLQSDNLPLTFGSGTKLEIK |
| no binding | – | MTK-230 (antibody, human IgG1, V domains shown) VH: EVQLQQSGPELVKPGASVRIPCKASGYTFSDYNMDWVKQSHGKSLEWIGNINPNIGGTIYSQKFKGKATLTVDKSSSTAYMELRSLTSEDTAVYYCARGDYGFASWGQGTLVTVSA VL: DIVLTQSPASLTVSLGQRATISCRASRSVSTSGYSYMHWYQQKPGQPPKLLIYLASNLESGVPARFSGSRSGTDFTLNIHPVEEEDAATYYCQHSREYPFTFGSGTKLEIK |
| – | 1.3 | MTK-211 (antibody, human IgG1, V domains shown) VH: QVQLQQSGAELMKPGASVKLSCKATGYTFTGYWIEWVKQRPGHGLEWIGEILPGSGGSNYNEKFKGKATFTADTSSNTAYIQLSSLTTEDSAIYCCARGEPSYFSDAGFAYWGQGTLVTVSA VL: QIVLTQSPAVMSASPGEKVTMTCSASSSITYMHWYQQKPGTSPKRWIYDTSKLASGVPARFSGSGSGTSYFLTISSMEAEDVATYYCHQRSTYPYTFGGGTKLEIM |
| – | 19 | MTK-208 (antibody, human IgG1, V domains shown) VH: QVQLQQPGAELVVPGASVRLSCKASGYTFINYWMHWVKQRPGQGLEWIGEIDPSDSYANYNQKFKDKSTLSLDKSSSTAYMQLSSLTSEDSAVYYCARCDYYGRLDYWGQGTTLTVSS VL: QVVLTQSPAIMSASPGEKVTITCSASSSVSYMLWFQQKPGTSPKLWIYSTSNLASGVPARFSGSGSGTSYSLTISRLEAEDAATYYCQQRSSYPPITFGAGTKLELK |
